Assay [1] concerns the target T1, extracellular domain of Tfr2 (Tfr2-ECD), recombinant His-MBP-c3-Tfr2-ECD (murine, UniProt Q9JKX3 103-798).
T1 sequence: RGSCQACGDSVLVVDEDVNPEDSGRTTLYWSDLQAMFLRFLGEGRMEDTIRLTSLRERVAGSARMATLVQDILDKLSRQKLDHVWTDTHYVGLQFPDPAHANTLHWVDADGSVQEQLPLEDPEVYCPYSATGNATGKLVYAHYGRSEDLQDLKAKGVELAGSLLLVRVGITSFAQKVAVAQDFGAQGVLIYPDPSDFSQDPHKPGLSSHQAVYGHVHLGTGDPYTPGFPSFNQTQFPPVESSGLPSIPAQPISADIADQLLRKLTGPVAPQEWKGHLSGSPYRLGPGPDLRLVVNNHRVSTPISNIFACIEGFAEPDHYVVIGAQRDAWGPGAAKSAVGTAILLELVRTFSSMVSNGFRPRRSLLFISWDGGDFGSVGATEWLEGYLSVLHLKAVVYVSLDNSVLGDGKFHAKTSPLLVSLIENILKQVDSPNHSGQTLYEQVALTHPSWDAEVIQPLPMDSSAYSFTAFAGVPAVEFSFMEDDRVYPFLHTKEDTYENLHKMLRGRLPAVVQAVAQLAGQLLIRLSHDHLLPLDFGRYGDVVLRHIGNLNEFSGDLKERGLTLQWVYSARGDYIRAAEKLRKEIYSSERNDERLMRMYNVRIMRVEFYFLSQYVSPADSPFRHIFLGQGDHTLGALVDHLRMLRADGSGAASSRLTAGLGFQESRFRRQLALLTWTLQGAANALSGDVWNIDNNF
In words: SPR. A general note: SPR reads the build-up and loss of mass on a sensor chip optically.

The target of assay [2] is T1, extracellular domain of Tfr2 …. Put plainly: SPR. This is another data set of the same source.

B1: BMP-2 (ligand)
chain: QAKHKQRKRLKSSCKRHPLYVDFSDVGWNDWIVAPPGYHAFYCHGECPFPLADHLNSTNHAIVQTLVNSVNSKIPKACCVPTELSAISMLYLDENEKVVLKNYQDMVVEGCGCR
Regarding B1, the Kd in assay [1] was 488 ± 37 nM. Further, the “fold binding level against holo-Tf” value in assay [2] was more than 10 fold.

B2: BMP-4 (ligand)
chain: SPKHHSQRARKKNKNCRRHSLYVDFSDVGWNDWIVAPPGYQAFYCHGDCPFPLADHLNSTNHAIVQTLVNSVNSSIPKACCVPTELSAISMLYLDEYDKVVLKNYQEMVVEGCGCR
B2: in assay [1], the Kd was found to be 409 ± 39 nM.

Usually Kd stands for the constant that tells how readily two partners part at equilibrium.

These data come from paper PMC6420074 (Nature metabolism, 2019).
